Results published in publication PMC12159680, “Nuclear protein FNBP4: A novel inhibitor of non-diaphanous formin FMN1-mediated actin cytoskeleton dynamics” (The Journal of Biological Chemistry, 2025).

T1: Extended FH2 FMN1 (mouse, UniProt Q05860 961-1466)
T1 sequence (looked up): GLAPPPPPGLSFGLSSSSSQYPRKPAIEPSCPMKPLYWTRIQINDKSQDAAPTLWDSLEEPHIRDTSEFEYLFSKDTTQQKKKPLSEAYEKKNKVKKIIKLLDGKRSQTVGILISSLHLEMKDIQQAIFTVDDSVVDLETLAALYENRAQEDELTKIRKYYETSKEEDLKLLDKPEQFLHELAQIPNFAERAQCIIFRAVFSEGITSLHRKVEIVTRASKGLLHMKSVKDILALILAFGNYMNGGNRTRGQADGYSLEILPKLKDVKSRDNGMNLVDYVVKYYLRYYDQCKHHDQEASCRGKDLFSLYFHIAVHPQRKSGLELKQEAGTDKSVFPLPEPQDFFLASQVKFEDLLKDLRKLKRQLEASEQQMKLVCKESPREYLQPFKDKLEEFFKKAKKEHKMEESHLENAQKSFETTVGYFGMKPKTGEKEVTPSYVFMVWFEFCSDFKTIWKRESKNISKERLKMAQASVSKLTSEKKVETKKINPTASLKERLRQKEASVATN

B1: N-terminal WW1-WW2 FNBP4 (domain or fragment, human, UniProt Q8N3X1 214-629, looked up)
chain: GIEMGDWQEVWDENTGCYYYWNTQTNEVTWELPQYLATQVQGLQHYQPSSVPGAETSFVVNTDIYSKEKTISVSSSKSGPVIAKREVKKEVNEGIQALSNSEEEKKGVAASLLAPLLPEGIKEEEERWRRKVICKEEPVSEVKETSTTVEEATTIVKPQEIMLDNIEDPSQEDLCSVVQSGESEEEEEQDTLELELVLERKKAELRALEEGDGSVSGSSPRSDISQPASQDGMRRLMSKRGKWKMFVRATSPESTSRSSSKTGRDTPENGETAIGAENSEKIDENSDKEMEVEESPEKIKVQTTPKVEEEQDLKFQIGELANTLTSKFEFLGINRQSISNFHVLLLQTETRIADWREGALNGNYLKRKLQDAAEQLKQYEINATPKGWSCHWDRDHRRYFYVNEQSGESQWEFPDG

Tests used:
[1] = target: FMN1 FH1-FH2 (Mus musculus) (UniProt Q05860); conditions: cited from earlier work
Sequence of FMN1 FH1-FH2 (Mus musculus) (Q05860 870-1435): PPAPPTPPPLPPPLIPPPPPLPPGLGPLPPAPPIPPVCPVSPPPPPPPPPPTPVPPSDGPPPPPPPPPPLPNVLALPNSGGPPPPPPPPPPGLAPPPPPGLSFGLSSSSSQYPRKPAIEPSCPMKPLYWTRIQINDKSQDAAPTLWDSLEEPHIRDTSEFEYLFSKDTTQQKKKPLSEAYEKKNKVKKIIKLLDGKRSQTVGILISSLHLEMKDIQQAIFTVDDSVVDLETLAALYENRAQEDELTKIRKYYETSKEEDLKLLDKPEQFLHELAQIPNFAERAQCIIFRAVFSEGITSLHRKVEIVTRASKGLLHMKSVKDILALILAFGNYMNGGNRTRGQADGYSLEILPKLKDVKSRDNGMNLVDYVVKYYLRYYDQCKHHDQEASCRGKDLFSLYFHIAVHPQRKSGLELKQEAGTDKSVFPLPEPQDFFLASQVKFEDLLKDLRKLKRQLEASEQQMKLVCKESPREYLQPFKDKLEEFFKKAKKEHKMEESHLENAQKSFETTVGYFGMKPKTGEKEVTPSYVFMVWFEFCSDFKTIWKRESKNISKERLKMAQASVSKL

Extended FH2 FMN1 = target: T1, Extended FH2 FMN1; experiment: SPR; Biacore T200; WW1-WW2 FNBP4 amine-coupled to a CM5 chip (1016.5 RU); Extended FH2 FMN1 flowed over at various concentrations; HBS-N running buffer; 25 °C; association 120 s, dissociation 380 s; global fit to a 1:1 Langmuir model; conditions: both partners purified

Molecule	Kd [1] [nM]	Kd (Extended FH2 FMN1) [nM]	koff (Extended FH2 FMN1) [s⁻¹]	kon (Extended FH2 FMN1) [M⁻¹ s⁻¹]
FNBP4 WW1-WW2 (from UniProt Q6ZQ03)	2			
B1		36.5	0.000803	22500
